From patent publication US8409836B2, “Treatment of cellulosic material and enzymes useful therein” (Roal Oy, priority 2005, dated 2013) come the findings set out here.

Type in all cases: biochemical
A short description of data set [1]: Hydrolysis with CBH enzyme mixtures, willow. Particulars: additional enzymes EGII, bG, 48 h, 45° C., pH 5.0. In a few lines:
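Purified CBH/Cel7 (14.5 mg/g substrate dry matter) combined with T. reesei EGII/Cel5A (3.6 mg/g) or with EGI (1.8 mg/g), EGII (1.8 mg/g), xylanase pI 9 (5000 nkat/g) and AXE (250 nkat/g), plus β-glucosidase (176 nkat/g). Washed steam-pretreated willow, 10 mg/ml in 0.05 M sodium acetate, 45° C., 48 h. Reducing sugars by DNS (glucose standard).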

Data set [2] in a line: Specific activity on MUG3. The note with it: purified cellobiohydrolases, 50° C., pH 5.0. Here is the method:
(§1) The specific activity of the preparations was determined using 4-methylumbelliferyl-β-D-lactoside (MUL), 4-methylumbelliferyl-β-D-cellobioside (MUG2) or 4-methylumbelliferyl-β-D-cellotrioside (MUG3) as substrate (van Tilbeurgh et al., 1988) in 0.05 M sodium citrate buffer pH 5 at 50° C. for 10 min. Endoglucanase and xylanase activities were determined by standard procedures (according to IUPAC, 1987) using carboxymethyl cellulose (CMC) and birch glucuronoxylan (Bailey et al., 1992) as substrates. Specific activity against Avicel was calculated on the basis of reducing sugars formed in a 24 h reaction at 50° C., pH 5.0, with 1% substrate and 0.25 μM enzyme dosage. The protein content of the purified enzyme preparations was measured according to Lowry et al., 1951. To characterize the end products of hydrolysis, soluble sugars liberated in 24 h hydrolysis experiment, as described above, were analysed by HPLC (Dionex). Purified cellobiohydrolase I (CBHI/Cel7A) of Trichoderma reesei was used as a reference.

Data set [3] is described as follows: Thermal stability of recombinant Cel7 enzymes. Particulars: MUL activity, optimum pH, reaction time 1 h. As to the method:
(§2) The recombinant CBH/Cel7 enzyme preparations were characterized in terms of pH optimum and thermal stability. The pH optimum of the recombinant CBH/Cel7 proteins from Thermoascus aurantiacus, Chaetomium thermophilum, and Acremonium thermophilum were determined in the universal McIlvaine buffer within a pH range of 3.0-8.0 using 4-methylumbelliferyl-β-D-lactoside (MUL) as a substrate (FIG. 3A). The pH optimum for Ct Cel7A and At Cel7A enzymes is at 5.5, above which the activity starts to gradually drop. The pH optimum of the recombinant crude Ta Cel7A is at 5.0 (FIG. 3A). Thermal stability of the recombinant Cel7 enzymes was determined by measuring the MUL activity in universal McIlvaine buffer at the optimum pH with reaction time of 1 h.

A short description of data set [4]: Hydrolysis with CBH enzyme mixtures, spruce. Particulars: additional enzymes EGII, bG; 48 h, 45° C., pH 5.0. In short, it runs like this: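 Washed SO2-steam pre-treated spruce (10 mg dry matter/ml, 0.05 M sodium acetate) hydrolysed 48 h at 45 °C with each CBH/Cel7 (14.5 mg/g) plus T. reesei EGII (3.6 mg/g), or plus EGI, EGII, xylanase and AXE, all with added β-glucosidase. Reducing sugars measured by DNS against glucose.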

Data set [5] can be described thus: Hydrolysis with CBH enzyme mixtures, corn stover. The note with it: additional enzymes EGII, bG, 48 h, 45° C., pH 5.0. In a few lines:
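Purified recombinant CBH/Cel7 (14.5 mg/g substrate dry matter) combined with T. reesei EGII/Cel5A or an EGI/EGII/xylanase/AXE mixture, plus β-glucosidase (176 nkat/g). Washed wet-oxidized corn stover, 10 mg/ml in 0.05 M sodium acetate, stirred 48 h at 45° C, triplicate. Reducing sugars by DNS against glucose, versus inactivated-enzyme references.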

The next data set can be described thus: Specific activity on MUL. The note with it: purified cellobiohydrolases, 50° C., pH 5.0. Here is the method: as §1
Data set [6] can be described thus: Specific activity on MUG2. Particulars: purified cellobiohydrolases, 50° C., pH 5.0. As to the method: as §1
Data set [7] can be described thus: pH optimum of recombinant CBH/Cel7 proteins. The note with it: McIlvaine buffer, pH range 3.0-8.0, MUL, 50° C., 10 min. Here is the method:
as §2

Data set [8] can be described thus: Endoglucanase activity on carboxymethyl cellulose. The note with it: purified cellobiohydrolases, 50° C., pH 5.0. As to the method: as §1
Acremonium thermophilum ALKO4245 was grown as described in Example 1. The culture supernatant was incubated at 70° C. for 24 hours after which it was concentrated by ultrafiltration. The pure endoglucanase was obtained by sequential purification with hydrophobic interaction and cation exchange chromatography followed by gel filtration. The endoglucanase activity of the fractions collected during purification was determined using carboxymethyl cellulose (CMC) as substrate (procedure of IUPAC 1987). Protein content was measured by BioRad Assay Kit (Bio-Rad Laboratories) using bovine serum albumine as standard.
Thermoascus aurantiacus ALKO4242 was grown as described in Example 1. The pure endoglucanase was obtained by sequential purification with hydrophobic interaction and anion exchange chromatography followed by gel filtration. The endoglucanase activity of the fractions collected during purification was determined using carboxymethyl cellulose (CMC) as substrate (procedure of IUPAC 1987). Protein content was measured by BioRad Assay Kit (Bio-Rad Laboratories) using bovine serum albumine as standard.

Data set [9] in a line: Hydrolysis with CBH enzyme mixtures, Avicel. The note with it: additional enzymes EGII, bG; 48 h, 45° C., pH 5.0. In a few lines:
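Each CBH/Cel7 dosed at 14.5 mg/g substrate dry matter with T. reesei EGII/Cel5A (3.6 mg/g) or with EGI (1.8 mg/g), EGII (1.8 mg/g), xylanase (5000 nkat/g) and AXE (250 nkat/g), plus β-glucosidase (176 nkat/g d.w.). Avicel at 10 mg/ml in 0.05 M sodium acetate, stirred 48 h at 45° C, triplicates; reducing sugars by DNS versus glucose standard.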

The nature of data set [10]: Xylanase activity on birch xylan. Particulars: purified cellobiohydrolases, 50° C., pH 5.0. As to the method: as §1
Acremonium thermophilum ALKO4245 was grown as described in Example 1. The culture supernatant was incubated at 70° C. for 24 hours after which, it was concentrated by ultrafiltration. The pure xylanase was obtained by sequential purification with hydrophobic interaction and cation exchange chromatography followed by gel filtration. The xylanase activity was determined using birch xylan as substrate (procedure of IUPAC 1987). Protein was assayed by BioRad Protein Assay Kit (Bio-Rad Laboratories) using bovine serum albumin as standard.
Thermoascus aurantiacus ALKO4242 was grown as described in Example 1. The pure xylanase was obtained by sequential purification with hydrophobic interaction, anion, and cation exchange chromatography followed by gel filtration. The xylanase activity was determined using birch xylan as substrate (procedure of IUPAC 1987). Protein was assayed by BioRad Protein Assay Kit (Bio-Rad Laboratories) using bovine serum albumin as standard.

Data set [11] is described as follows: Specific activity against Avicel. The note with it: 50° C., pH 5.0, 24 h, 1% substrate, 0.25 μM enzyme. Here is the method:
as §1

Data set [12] can be described thus: Thermal stability of purified cellobiohydrolases. Particulars: 0.1% BSA, pH 5.0, 60 min, MUL substrate. As to the method: Thermal stability of the purified cellobiohydrolases was determined at different temperatures. The reaction was performed in the presence of 0.1% BSA at pH 5.0 for 60 min using 4-methylumbelliferyl-β-D-lactoside as substrate. C. thermophilum ALKO4265 CBH/Cel7A and A. thermophilum ALKO4245 CBH/Cel7A were stable up to 65° and 60° C., respectively. The T. reesei reference enzyme (CBHI/Cel7A) retained 100% of activity up to 55° C.

Data set [13] is described as follows: Crystalline cellulose (Avicel) hydrolysis by recombinant cellobiohydrolases. The note with it: 70° C., pH 5.0, enzyme 1.4 μM. Here is the method: The purified recombinant cellobiohydrolases Ct Cel7A, Ta Cel7A, Ta Cel7A+Tr CBD, Ta Cel7A+Ct CBD, At Cel7A as well as the core version of Ct Cel7A (see below) were tested in equimolar amounts in crystalline cellulose hydrolysis at two temperatures, 45° C. and 70° C.; the purified T. reesei Tr Cel7A and its core version (see below) were used as comparison. The crystalline cellulose (Ph 101, Avicel; Fluka, Bucsh, Switzerland) hydrolysis assays were performed in 1.5 ml tube scale 50 mM sodium acetate, pH 5.0. Avicel was shaken at 45° C. or at 70° C., with the enzyme solution (1.4 μM), and the final volume of the reaction mixture was 325 μl. The hydrolysis was followed up to 24 hours taking samples at six different time points and stopping the reaction by adding 163 μl of stop reagent containing 9 vol of 94% ethanol and 1 vol of 1 M glycine (pH 11). […] The formation of soluble reducing sugars in the supernatant was determined by para-hydroxybenzoicacidhydrazide (PAHBAH) method (Lever, 1972) using a cellobiose standard curve (50 to 1600 μM cellobiose). […] The absorbance of the samples at 405 nm was measured.
The core versions of the cellobiohydrolases harboring a CBD in their native form were obtained as follows: Ct Cel7A and Tr Cel7A were exposed to proteolytic digestion to remove the cellulose-binding domain. […] The product was analysed in SDS-PAGE.

Bounds are passed on as bounds.

B1: At Cel7A: cellobiohydrolase of Acremonium thermophilum ALKO4245, gene At cel7A, amino acid SEQ ID NO: 6, with CBD (protein)
chain: MYTKFAALAALVATVRGQAACSLTAETHPSLQWQKCTAPGSCTTVSGQVTIDANWRWLHQTNSSTNCYTGNEWDTSICSSDTDCATKCCLDGADYTGTYGVTASGNSLNLKFVTQGPYSKNIGSRMYLMESESKYQGFTLLGQEFTFDVDVSNLGCGLNGALYFVSMDLDGGVSKYTTNKAGAKYGTGYCDSQCPRDLKFINGQANIDGWQPSSNDANAGLGNHGSCCSEMDIWEANKVSAAYTPHPCTTIGQTMCTGDDCGGTYSSDRYAGICDPDGCDFNSYRMGDTSFYGPGKTVDTGSKFTVVTQFLTGSDGNLSEIKRFYVQNGKVIPNSESKIAGVSGNSITTDFCTAQKTAFGDTNVFEERGGLAQMGKALAEPMVLVLSVWDDHAVNMLWLDSTYPTDSTKPGAARGDCPITSGVPADVESQAPNSNVIYSNIRFGPINSTYTGTPSGGNPPGGGTTTTTTTTTSKPSGPTTTTNPSGPQQTHWGQCGGQGWTGPTVCQSPYTCKYSNDWYSQCL
On to B1, for which the “Hydrolysis products as reducing sugars, WILLOW” value in data set [1] (EGI, XYL, AXE) came to 5.4 mg/mL; in [1], 3.3 mg/mL. The “Specific activity, MUG3” value in data set [2] was found to be 1.3 nkat/mg. Moreover, in [3], the “Thermal stability at the higher temperatures (≧65° C.)” value is listed as “clearly less stable”. In addition, the “Hydrolysis products as reducing sugars, SPRUCE” value in data set [4] stood at 3.3 mg/mL. Moreover, the “Hydrolysis products as reducing sugars, WOCS” value in data set [5] (EGI, XYL, AXE) was 6.4 mg/mL; in data set [5], 4.5 mg/mL. In “Specific activity on MUL”, the “Specific activity, MUL” value stood at 21.5 nkat/mg. Further, the “Specific activity, MUG2” value in data set [6] was determined as 9.2 nkat/mg. Further, the pH optimum in data set [7] was found to be 5.5. Besides, the “Specific activity, CMC” value in [8] is 26.2 nkat/mg. For the same molecule, the “Hydrolysis products as reducing sugars, Avicel” value in data set [9] was found to be 5.3 mg/mL. In addition, the “Specific activity, Xylan” value in [10] turned out to be 11.3 nkat/mg. Besides, the “Specific activity, Avicel” value in data set [11] worked out at 1.8 nkat/mg. Further, the “Thermal stability: temperature up to which stable / 100% of activity retained” value in [12] is at most 60 °C.

B2: Ta Cel7A + Tr CBD: Thermoascus aurantiacus Cel7A fused to linker and CBD of Trichoderma reesei CBHI/Cel7A, SEQ ID NO: 28 (protein)
chain: MYQRALLFSFFLAAARAQQAGTVTAENHPSLTWQQCSSGGSCTTQNGKVVIDANWRWVHTTSGYTNCYTGNTWDTSICPDDVTCAQNCALDGADYSGTYGVTTSGNALRLNFVTQSSGKNIGSRLYLLQDDTTYQIFKLLGQEFTFDVDVSNLPCGLNGALYFVAMDADGGLSKYPGNKAGAKYGTGYCDSQCPRDLKFINGQANVEGWQPSANDPNAGVGNHGSCCAEMDVWEANSISTAVTPHPCDTPGQTMCQGDDCGGTYSSTRYAGTCDPDGCDFNPYRQGNHSFYGPGQIVDTSSKFTVVTQFITDDGTPSGTLTEIKRFYVQNGKVIPQSESTISGVTGNSITTEYCTAQKAAFGDNTGFFTHGGLQKISQALAQGMVLVMSLWDDHAANMLWLDSTYPTDADPDTPGVARGTCPTTSGVPADVESQYPNSYVIYSNIKVGPIGSTGNPSGGNPPGGNPPGTTTTRRPATTTGSSPGPTQSHYGQCGGIGYSGPTVCASGTTCQVLNPYYSQCL
With B2, the “Hydrolysis products as reducing sugars, WILLOW” value in data set [1] (EGI, XYL, AXE) was 5.9 mg/mL; in data set [1], 4.0 mg/mL. Further, in data set [4], the “Hydrolysis products as reducing sugars, SPRUCE” value turned out to be 4.0 mg/mL. Moreover, the “Hydrolysis products as reducing sugars, WOCS” value in data set [5] (EGI, XYL, AXE) was 7.2 mg/mL; in [5] it was 4.4 mg/mL. Also, the “Avicel hydrolysis as compared to T. reesei Cel7A” value in data set [13] is recorded as “superior”. In [9], the “Hydrolysis products as reducing sugars, Avicel” value was 5.8 mg/mL.
